Source: PMC11821514 (Nature Cell Biology, 2025)

What was measured:
GST–Atg11^685–1178 = target: T1, GST–Atg11^685–1178 (budding yeast, UniProt Q12527 685-1178); experiment: pull-down; GST fusions on GSH beads incubated with purified recombinant Atg19^3D, 20 min at room temperature; six washes with GST-wash buffer containing 0.02% Tween-20; immunoblotting; settings: both partners purified
T1 construct: also called C-terminal fragment of Atg11; not shown: GST, N-terminal, kept
T1 sequence (looked up): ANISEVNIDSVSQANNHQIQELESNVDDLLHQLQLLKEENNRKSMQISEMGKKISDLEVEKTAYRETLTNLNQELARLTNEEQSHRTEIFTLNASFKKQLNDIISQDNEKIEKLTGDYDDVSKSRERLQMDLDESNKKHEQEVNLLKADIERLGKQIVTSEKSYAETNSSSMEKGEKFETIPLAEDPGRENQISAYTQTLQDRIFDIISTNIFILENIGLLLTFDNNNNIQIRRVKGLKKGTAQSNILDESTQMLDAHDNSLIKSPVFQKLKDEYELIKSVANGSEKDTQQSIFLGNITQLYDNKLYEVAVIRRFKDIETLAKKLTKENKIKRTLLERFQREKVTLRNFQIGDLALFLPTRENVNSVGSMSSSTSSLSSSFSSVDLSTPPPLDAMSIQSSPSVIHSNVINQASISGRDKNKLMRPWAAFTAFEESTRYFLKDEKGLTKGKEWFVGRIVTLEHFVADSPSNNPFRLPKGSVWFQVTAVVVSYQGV

StrepII–GFP–Atg11 = target: T2, StrepII–GFP–Atg11 (budding yeast, UniProt Q12527 1-1178); experiment: bead binding assay read by fluorescence microscopy; GST–BFP fusion on GSH beads incubated with preformed GFP–Atg11 condensates (purified by the methods and results, Sf9 lysate by the legends), 20 min at room temperature; imaged before and after eight washes with 20 mM HEPES pH 7.5, 150 mM NaCl, 5 mM DTT; settings: both partners purified
T2 construct: Atg11, budding yeast; the ATG11 ORF was subcloned with an N-terminal StrepII–GFP tag into a pLIB vector; Used as preformed condensates (20 min at room temperature in 20 mM HEPES pH 7.5, 150 mM NaCl, 5 mM DTT); also called GFP–Atg11 condensates; GFP–Atg11 droplets; source: Sf9 insect cells, baculovirus, purified (Strep-TactinXT); not shown: GFP, N-terminal, kept
T2 sequence (looked up): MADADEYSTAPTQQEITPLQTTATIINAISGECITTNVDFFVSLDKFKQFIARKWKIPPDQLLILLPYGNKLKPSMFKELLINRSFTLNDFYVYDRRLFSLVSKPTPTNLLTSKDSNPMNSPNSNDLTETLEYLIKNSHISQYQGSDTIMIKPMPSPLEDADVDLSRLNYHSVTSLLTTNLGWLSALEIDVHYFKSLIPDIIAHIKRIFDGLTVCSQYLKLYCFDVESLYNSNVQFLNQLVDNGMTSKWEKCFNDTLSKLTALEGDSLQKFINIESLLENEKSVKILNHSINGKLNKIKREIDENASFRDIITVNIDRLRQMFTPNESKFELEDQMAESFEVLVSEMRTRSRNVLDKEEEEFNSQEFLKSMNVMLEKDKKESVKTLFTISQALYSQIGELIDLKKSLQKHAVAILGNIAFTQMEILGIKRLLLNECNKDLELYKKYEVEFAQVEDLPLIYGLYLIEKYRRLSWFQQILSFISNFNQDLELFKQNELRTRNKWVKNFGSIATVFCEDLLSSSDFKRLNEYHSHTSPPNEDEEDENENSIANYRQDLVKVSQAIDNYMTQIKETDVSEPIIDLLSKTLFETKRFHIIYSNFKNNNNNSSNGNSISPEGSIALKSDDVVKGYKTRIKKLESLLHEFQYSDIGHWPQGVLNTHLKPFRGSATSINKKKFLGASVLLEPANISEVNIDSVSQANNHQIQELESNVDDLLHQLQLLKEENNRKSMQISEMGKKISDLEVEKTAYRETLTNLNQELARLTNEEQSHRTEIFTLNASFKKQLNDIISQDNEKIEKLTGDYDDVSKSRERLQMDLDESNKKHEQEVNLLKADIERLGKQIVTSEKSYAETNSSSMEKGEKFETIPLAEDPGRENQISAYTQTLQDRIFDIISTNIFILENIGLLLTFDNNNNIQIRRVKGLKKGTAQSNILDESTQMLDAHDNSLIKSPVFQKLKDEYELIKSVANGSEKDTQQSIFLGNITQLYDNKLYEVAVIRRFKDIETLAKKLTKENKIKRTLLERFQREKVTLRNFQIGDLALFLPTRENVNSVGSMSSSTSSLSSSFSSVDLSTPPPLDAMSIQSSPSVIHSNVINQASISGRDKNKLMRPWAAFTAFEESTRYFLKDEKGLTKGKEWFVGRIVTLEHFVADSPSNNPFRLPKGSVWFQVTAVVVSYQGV

B1: Atg19^3D (natural protein, budding yeast, UniProt P35193 1-415, looked up)
chain: MNNSKTNQQMNTSMGYPLTVYDECNKFQLIVPTLDANIMLWCIGQLSLLNDSNGCKHLFWQPNDKSNVRILLNNYDYGHLFKYLQCQRKCSVYIGEGTLKKYNLTISTSFDNFLDLTPSEEKESLCREDAHEDPVSPKAGSEEEISPNSTSNVVVSRECLDNFMKQLLKLEESLNKLELEQKVTNKEPNHRISGTIDIPEDRSELVNFFTELKTVKQLEDVFQRYHDYERLSQECDSKTEIASDHSKKETKIEVEPPNERSLQITMNQRDNSLYFQLFNNTNSVLAGNCKLKFTDAGDKPTTQIIDMGPHEIGIKEYKEYRYFPYALDLEAGSTIEIENQYGEVIFLGKYGSSPMINLRPPSRLSAESLQASQEPFYSFQIDTLPELDDDDIISTDISLSYDGDDNEKALTWEEL
notes: Atg19, budding yeast, phospho-mimetic mutant S390D, S391D, S396D; also called purified recombinant Atg19^3D; source: E. coli BL21(DE3), expressed as GST–Atg19^3D from pGEX-4T.1, purified (GSH beads, thrombin elution, Superdex200); not shown: GST, N-terminal, cleaved
- binding result (GST–Atg11^685–1178): binds

B2: GST–mTagBFP–Atg19^3D (natural protein, budding yeast, UniProt P35193 1-415, looked up)
chain: B1 chain
notes: Atg19, budding yeast, phospho-mimetic mutant S390D, S391D, S396D; also called GST–BFP–Atg19^3D; Atg19^3D-decorated beads; not shown: GST, N-terminal, kept; mTagBFP, N-terminal, kept
- binding result (StrepII–GFP–Atg11): binds

B3: GST–BFP–Vac8 (natural protein, budding yeast, UniProt P39968 1-578, looked up)
chain: MGSCCSCLKDSSDEASVSPIADNEREAVTLLLGYLEDKDQLDFYSGGPLKALTTLVYSDNLNLQRSAALAFAEITEKYVRQVSREVLEPILILLQSQDPQIQVAACAALGNLAVNNENKLLIVEMGGLEPLINQMMGDNVEVQCNAVGCITNLATRDDNKHKIATSGALIPLTKLAKSKHIRVQRNATGALLNMTHSEENRKELVNAGAVPVLVSLLSSTDPDVQYYCTTALSNIAVDEANRKKLAQTEPRLVSKLVSLMDSPSSRVKCQATLALRNLASDTSYQLEIVRAGGLPHLVKLIQSDSIPLVLASVACIRNISIHPLNEGLIVDAGFLKPLVRLLDYKDSEEIQCHAVSTLRNLAASSEKNRKEFFESGAVEKCKELALDSPVSVQSEISACFAILALADVSKLDLLEANILDALIPMTFSQNQEVSGNAAAALANLCSRVNNYTKIIEAWDRPNEGIRGFLIRFLKSDYATFEHIALWTILQLLESHNDKVEDLVKNDDDIINGVRKMADVTFERLQRSGIDVKNPGSNNNPSSNDNNSNNNDTGSEHQPVEDASLELYNITQQILQFLH
notes: Vac8, vacuolar membrane protein, budding yeast; The results text says GST–Vac8, the legend GST–BFP–Vac8; also called GST–Vac8; recombinant GST–Vac8; not shown: GST, N-terminal, kept; BFP, N-terminal, kept
- binding result (StrepII–GFP–Atg11): binds
